Where a chain is given by its changes, count along the chain named. In names and notes the source's numbering stands. Several values for one entry are separate records, joined by “and”; a condition that tells them apart may be missing. Equal entries are not always repeated. Where two headings read alike, the source gives them in different places. Each block holds one binder with its values, some of them ahead of it.
Key:
[1] = biological target: T1, DNAJC12, wild type, human, full-length (human, UniProt Q9UKB3 1-198); experiment: SEC
T1 sequence (Q9UKB3 whole entry): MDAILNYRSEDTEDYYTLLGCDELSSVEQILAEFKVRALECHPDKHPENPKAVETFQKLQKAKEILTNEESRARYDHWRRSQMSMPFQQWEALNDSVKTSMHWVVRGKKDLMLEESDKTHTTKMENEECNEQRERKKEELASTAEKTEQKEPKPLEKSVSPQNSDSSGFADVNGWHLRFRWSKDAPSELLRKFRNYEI

SEC-MALS = biological target: the molecule itself; experiment: SEC-MALS
[2] = biological target: T1, DNAJC12, wild type, human, full-length; experiment: BLI
[3] = biological target: T1, DNAJC12, wild type, human, full-length; experiment: BLI; remark: listed apart in the source

binding result [1]: binds
B1: PAH-p.R261Q, PKU-associated variant of phenylalanine hydroxylase (enzyme, human)
chain: MSTAVLENPGLGRKLSDFGQETSYIEDNCNQNGAISLIFSLKEEVGALAKVLRLFEENDVNLTHIESRPSRLKKDEYEFFTHLDKRSLPALTNIIKILRHDIGATVHELSRDKKKDTVPWFPRTIQELDRFANQILSYGAELDADHPGFKDPVYRARRKQFADIAYNYRHGQPIPRVEYMEEEKKTWGTVFKTLKSLYKTHACYEYNHIFPLLEKYCGFHEDNIPQLEDVSQFLQTCTGFRLRPVAGLLSSRDFLGGLAFQVFHCTQYIRHGSKPMYTPEPDICHELLGHVPLFSDRSFAQFSQEIGLASLGAPDEYIEKLATIYWFTVEFGLCKQGDSIKAYGAGLLSSFGELQYCLSEKPKLLPLELEKTAIQNYTVTEFQPLYYVAESFNDAKEKVRNFAATIPRPFSVRYDPYTQRIEVLDNTQQLKILADSINSEIGILCSALQKIK

Kd [2]: 139 ± 19 nM
Kd [3]: 508 ± 59 nM
B2: phenylalanine hydroxylase (PAH), wild type, human (enzyme, UniProt P00439 1-452, looked up)
chain: B1 chain with Q261R
modifications: biotin (EZ-Link NHS-PEG4-Biotin), for the BLI only
stoichiometry N (SEC-MALS): 4 and 8

binding result [1]: binds
B3: MBP-PAH(RD), regulatory domain of PAH (PAH(1-112)) fused to maltose binding protein (domain or fragment, human, UniProt P00439 1-112, looked up)
chain: MSTAVLENPGLGRKLSDFGQETSYIEDNCNQNGAISLIFSLKEEVGALAKVLRLFEENDVNLTHIESRPSRLKKDEYEFFTHLDKRSLPALTNIIKILRHDIGATVHELSRD

— paper doi:10.1101/2025.07.18.665471 (bioRxiv, 2025)
